PMC4264537 (Molecular microbiology, 2014)

Target: the molecule itself
Test: cross-linking

B1: CstR (CsoR-like sulfurtransferase repressor), wild type, Staphylococcus aureus strain Newman (natural protein, UniProt Q9XBC0 1-86, looked up)
chain: MNYDKKMINRINRIQGQLNGIIKMMEEGKDCKDVITQISASKSSLQRLMGIIISENLIECVKVAADDEESSQELINEAVNLLVKSK
stoichiometry N: 2
